Source: publication PMC3118792

Target: mixture of human tenascin and human fibronectin matrix proteins (human)
Experiment: SPR; BIAcore X, CM4 chip with an amine-coupled mixture of human tenascin and human fibronectin (4100 RU); samples injected at 1 µM in HBS (10 mM HEPES, 150 mM NaCl, 3 mM EDTA, 0.05% P20, pH 7.4), 5 µl/minute, 25°C, 1 minute, then 1 minute dissociation; reference cell subtracted

response (RU) | Substance
30 RU | avidin (from UniProt P02701 25-152) (natural protein)
> 2000 RU | AvidinOX (from UniProt P02701 25-152)
